Assay results reported in patent publication US12049656B2, “Process for the modification of a glycoprotein using a glycosyltransferase that is or is derived from a β(1,4)-n-acetylgalactosaminyltransferase” (Synaffix B.V., priority 2015, dated 2024).
Changes are numbered by the printed parent chain. Numbers in names are those of the source.

B1: DmGalNAcT (47-403): truncated Drosophila melanogaster β-(1,4)-GalNAcT enzyme, amino acids 47-403 of SEQ ID NO: 5 (protein)
chain: HKYAHIYGNASSDGAGGSEASRLPASPLALSKDRERDQELNGGPNSTIRTVIATANFTSIPQDLTRFLLGTKKFLPPRQKSTSALLANCTDPDPRDGGPITPNTTLESLDVIEAELGPLLRPGGAFEPENCNAQHHVAIVVPFRDRYAHLLLFLRNIHPFLMKQRIAYRIFIVEQTNGKPFNRAAMMNIGYLEALKLYQWDCFIFHDVDLLPLDDRNLYNCPRQPRHMSVAIDTLNFRLPYRSIFGGVSAMTREHFQAVNGFSNSFFGWGGEDDDMSNRLKHANLFISRYPVNIARYKMLKHQKEKANPKRYENLQNGMSKIEQDGINSIKYSIYSIKQFPTFTWYLAELKNSERKS
modifications: DmGalNAcT (47-403)
B2: AsGalNAcT (30-383): truncated Ascaris sum β-(1,4)-GalNAcT enzyme, amino acids 30-383 of SEQ ID NO: 3 (protein)
chain: DYSFWSPAFIISAPKTLTTLQPFSQSTSTNDLAVSALESVEFSMLDNSSILHASDNWTNDELVMRAQNENLQLCPMTPPALVGPIKVWMDAPSFAELERLYPFLEPGGHGMPTACRARHRVAIVVPYRDRESHLRTFLHNLHSLLTKQQLDYAIFVVEQTANETFNRAKLMNVGYAEAIRLYDWRCFIFHDVDLLPEDDRNLYSCPDEPRHMSVAVDKFNYKLPYGSIFGGISALTREQFEGINGFSNDYWGWGGEDDDLSTRVTLAGYKISRYPAEIARYKMIKHNSEKKNPVNRCRYKLMSATKSRWRNDGLSSLSYDLISLGRLPLYTHIKVDLLEKQSRRYLRTHGFPTC
modifications: AsGalNAcT (30-383)
B3: TnGalNAcT (33-421): truncated Trichoplusia ni β-(1,4)-GalNAcT enzyme, amino acids 33-421 of SEQ ID NO: 4 (protein)
chain: SPLRTYLYTPLYNATQPTLRNVERLAANWPKKIPSNYIEDSEEYSIKNISLSNHTTRASVVHPPSSITETASKLDKNMTIQDGAFAMISPTPLLITKLMDSIKSYVTTEDGVKKAEAVVTLPLCDSMPPDLGPITLNKTELELEWVEKKFPEVEWGGRYSPPNCTARHRVAIIVPYRDRQQHLAIFLNHMHPFLMKQQIEYGIFIVEQEGNKDFNRAKLMNVGFVESQKLVAEGWQCFVFHDIDLLPLDTRNLYSCPRQPRHMSASIDKLHFKLPYEDIFGGVSAMTLEQFTRVNGFSNKYWGWGGEDDDMSYRLKKINYHIARYKMSIARYAMLDHKKSTPNPKRYQLLSQTSKTFQKDGLSTLEYELVQVVQYHLYTHILVNIDERS
modifications: TnGalNAcT(33-421)
B4: β4GalT(Y289L,M344H): double mutant β-1,4-galactosyltransferase described by Ramakrishnan et al. (protein, UniProt P08037 1-402, looked up, variant Y289L M344H)
chain: MKFREPLLGGSAAMPGASLQRACRLLVAVCALHLGVTLVYYLAGRDLRRLPQLVGVHPPLQGSSHGAAAIGQPSGELRLRGVAPPPPLQNSSKPRSRAPSNLDAYSHPGPGPGPGSNLTSAPVPSTTTRSLTACPEESPLLVGPMLIEFNIPVDLKLVEQQNPKVKLGGRYTPMDCISPHKVAIIIPFRNRQEHLKYWLYYLHPILQRQQLDYGIYVINQAGESMFNRAKLLNVGFKEALKDYDYNCFVFSDVDLIPMNDHNTYRCFSQPRHISVAMDKFGFSLPYVQLFGGVSALSKQQFLSINGFPNNYWGWGGEDDDIYNRLAFRGMSVSRPNAVIGKCRHIRHSRDKKNEPNPQRFDRIAHTKETMLSDGLNSLTYMVLEVQRYPLYTKITVDIGTPS
B5: bovine β(1,4)-Gal-T1: bovine β(1,4)-galactosyltransferase, commercially available from Sigma Aldrich (protein)
chain: B4 chain with V158I, P187L, I205M, L206V, H344M
modifications: Bos Taurus GalT Y289L mutant
notes: bovine β(1,4)-galactosyltransferase, commercially available from Sigma Aldrich

How the values were obtained:
TnGalNAcT = experiment: Transfer of 6-modified GalNAc-UDP derivatives to trimmed brentuximab by TnGalNAcT (mass spectrometric analysis); format: biochemical, Trichoplusia ni; conditions: sugar nucleotide 5 mM; TnGalNAcT 1.5 mg/mL; trimmed brentuximab 15 mg/mL; 30 °C overnight
Description: Bentuximab was trimmed analogues to the trimming of trastuzumab as described in example 6.
(§1) Trimmed bentuximab (15 mg/mL) was incubated with 6-amino-6-deoxy-GalNAc-UDP 94 (5 mM) and TnGalNAcT (1.5 mg/mL) in 10 mM MnCl2 and 25 mM Tris-HCl pH 8.0 at 30° C. overnight. A sample of the reaction mixture (2 μL) was incubated for 1 hour at 37° C. with Fabricator™ (1.25 U/μL) in phosphate-buffered saline (PBS) pH 6.6 in a total volume of 10 μL.
as §1, with “6-(2-azidoacetamido)-6-deoxy-GalNAc 93” for “6-amino-6-deoxy-GalNAc-UDP 94”

β-(1,4)-GalNAcT = β-(1,4)-GalNAcT (Caenorhabditis elegans, UniProt Q9GUM2); conditions: as donor substrate compared with UDP-GalNAc; cited from earlier work
Chain of β-(1,4)-GalNAcT (Q9GUM2 whole entry): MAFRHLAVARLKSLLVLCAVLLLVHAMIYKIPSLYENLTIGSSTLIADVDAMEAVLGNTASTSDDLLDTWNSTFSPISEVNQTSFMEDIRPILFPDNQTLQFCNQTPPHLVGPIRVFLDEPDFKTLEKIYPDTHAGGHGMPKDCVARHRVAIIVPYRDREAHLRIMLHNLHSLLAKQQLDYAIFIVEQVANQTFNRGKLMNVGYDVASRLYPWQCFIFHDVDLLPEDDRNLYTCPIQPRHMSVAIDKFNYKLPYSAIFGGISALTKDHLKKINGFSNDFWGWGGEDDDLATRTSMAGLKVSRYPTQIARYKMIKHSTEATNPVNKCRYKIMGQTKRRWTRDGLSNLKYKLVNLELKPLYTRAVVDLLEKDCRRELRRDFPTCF

[1] = test system: core GlcNAc(Fuc) substituted trastuzumab; experiment: Glycosyltransfer of 6-azido-GalNAc-UDP to trimmed trastuzumab under the action of GalNAcTs (mass spectral analysis); format: biochemical; conditions: 6-azido-GalNAc-UDP 1 mM; for Conversions (%) of GlcNAc(Fuc) substituted trastuzumab into 6-azido-GalNAc-GlcNAc(Fuc)-substituted trastuzumab: trimmed trastuzumab 10 mg/mL; for product formation, mass spectral analysis of Fabricator-digested samples: both enzyme concentrations (0.2 or 0.5 mg/mL)
Description: (§2) Prior to mass spectral analysis, IgGs were either treated with DTT, which allows analysis of both light and heavy chain, or treated with Fabricator™ (commercially available from Genovis, Lund, Sweden), which allows analysis of the Fc/2 fragment. For analysis of both light and heavy chain, a solution of 20 μg (modified) IgG was incubated for 5 minutes at 37° C. with 100 mM DTT in a total volume of 4 μL. If present, azide-functionalities are reduced to amines under these conditions. For analysis of the Fc/2 fragment, a solution of 20 μg (modified) IgG was incubated for 1 hour at 37° C. with Fabricator™ (1.25 U/μL) in phosphate-buffered saline (PBS) pH 6.6 in a total volume of 10 μL. After reduction or Fabricator-digestion the samples were washed trice with milliQ using an Amicon Ultra-0.5, Ultracel-10 Membrane (Millipore) resulting in a final sample volume of approximately 40 μL. Next, the samples were analyzed by electrospray ionization time-of-flight (ESI-TOF) on a JEOL AccuTOF. Deconvoluted spectra were obtained using Magtran software.
Glycan trimming of trastuzumab was performed with endo S from Streptococcus pyogenes (commercially available from Genovis, Lund, Sweden). Thus, trastuzumab (10 mg/mL) was incubated with endo S (40 U/mL) in 25 mM Tris pH 8.0 for approximately 16 hours at 37° C. The deglycosylated IgG was concentrated and washed with 10 mM MnCl2 and 25 mM Tris-HCl pH 8.0 using an Amicon Ultra-0.5, Ultracel-10 Membrane (Millipore). […] The two peaks of heavy chain belonged to one major product (49496 Da, 90% of total heavy chain), resulting from core GlcNAc(Fuc) substituted trastuzumab, and a minor product (49351 Da, ±10% of total heavy chain), resulting from trimmed trastuzumab.
Incorporation of 6-azidoGalNAc was tested for CeGalNAcT(30-383) (identified by SEQ ID NO: 6), AsGalNAcT(30-383) (identified by SEQ ID NO: 7), TnGalNAcT(33-421) (identified by SEQ ID NO: 8) and DmGalNAcT(47-403) (identified by SEQ ID NO: 9), which were expressed and purified as described in example 5. Trimmed trastuzumab (10 mg/mL), obtained by endo S treatment of trastuzumab as described above, was incubated with 6-azido-GalNAc-UDP (1 mM, commercially available from GlycoHub) in 10 mM MnCl2 and 25 mM Tris-HCl pH 7.5 and either 0.2 or 0.5 mg/mL of one of the above mentioned GalNAcTs.

[2] = cited from earlier work
[3] = test system: core GlcNAc(Fuc) substituted trastuzumab; experiment: Glycosyltransfer of 6-azido-Gal-UDP to trimmed trastuzumab under the action of bovine β(1,4)-Gal-T1; format: biochemical; conditions: 0.1 or 0.5 mg/mL enzyme; 6-azido-Gal-UDP 1 mM; 30 °C overnight
Description: as §2
Glycan trimming of trastuzumab was performed with endo S from Streptococcus pyogenes (commercially available from Genovis, Lund, Sweden). Thus, trastuzumab (10 mg/mL) was incubated with endo S (40 U/mL) in 25 mM Tris pH 8.0 for approximately 16 hours at 37° C. […]

Row | Molecule | Conversions (%) of GlcNAc(Fuc) substituted trastuzumab into 6-azido-GalNAc-GlcNAc(Fuc)-substituted trastuzumab ([1]; 0.2 mg/mL enzyme) | Conversions (%) of GlcNAc(Fuc) substituted trastuzumab into 6-azido-GalNAc-GlcNAc(Fuc)-substituted trastuzumab ([1]; 0.5 mg/mL enzyme) | product formation, mass spectral analysis of Fabricator-digested samples [1] | further results
1 | CC(=O)NC1C(OP(=O)(O)OP(=O)(O)OCC2OC(n3ccc(=O)[nH]c3=O)C(O)C2O)OC(CNC(=O)CN=[N+]=[N-])C(O)C1O (stereo not drawn) [compound 93, 6-(2-azidoacetamido)-6-deoxy-GalNAc-UDP] | – | – | – | conversion to the modified brentuximab product (TnGalNAcT): 70%
2 | CC(=O)N[C@H]1[C@@H](OP(=O)(O)OP(=O)(O)OC[C@H]2O[C@@H](n3ccc(=O)[nH]c3=O)[C@H](O)[C@@H]2O)O[C@H](CO)[C@@H](O)[C@@H]1O [UDP-GlcNAc] | – | – | – | transferase activity remains (β-(1,4)-GalNAcT): 0.7%
3 | CC(=O)NC1C(OP(=O)(O)OP(=O)(O)OCC2OC(n3ccc(=O)[nH]c3=O)C(O)C2O)OC(CN)C(O)C1O (stereo not drawn) [compound 94, 6-amino-6-deoxy-GalNAc-UDP] | – | – | – | conversion to the modified brentuximab product (TnGalNAcT): full conversion
4 | CeGalNAcT (30-383): truncated Caenorhabditis elegans β-(1,4)-GalNAcT enzyme, amino acids 30-383 of SEQ ID NO: 2 | 0% | 0% | no product formation | –
5 | B1 | 0% | 0% | no product formation | –
6 | B2 | 10% | 30% | partial conversion | –
7 | B3 | 40% | 60% | partial conversion | –
8 | B4 | – | – | – | activity in the presence of Mg2+ ([2]; Mg2+): 25-30%; loss of Mn2+-dependent activity ([2]; Mn2+): 98%
9 | B5 | – | – | – | product formation, mass spectral analysis of reduced samples [3]: no product formation
